Where “and” joins values, the source holds several entries; their conditions need not be identical. Equal entries are not always repeated.
B1: Ta βG_81: beta-glucosidase of Thermoascus aurantiacus ALKO4242, gene Ta cel3A, amino acid SEQ ID NO: 22 (protein)
chain: MRLGWLELAVAAAATVASAKDDLAYSPPFYPSPWMNGNGEWAEAYRRAVDFVSQLTLAEKVNLTTGVGWMQEKCVGETGSIPRLGFRGLCLQDSPLGVRFADYVSAFPAGVNVAATWDKNLAYLRGKAMGEEHRGKGVDVQLGPVAGPLGRHPDGGRNWEGFSPDPVLTGVLMAETIKGIQDAGVIACAKHFIGNEMEHFRQAGEAVGYGFDITESVSSNIDDKTLHELYLWPFADAVRAGVGSFMCSYNQVNNSYSCSNSYLLNKLLKSELDFQGFVMSDWGAHHSGVGAALAGLDMSMPGDTAFGTGKSFWGTNLTIAVLNGTVPEWRVDDMAVRIMAAFYKVGRDRYQVPVNFDSWTKDEYGYEHALVGQNYVKVNDKVDVRADHADIIRQIGSASVVLLKNDGGLPLTGYEKFTGVFGEDAGSNRWGADGCSDRGCDNGTLAMGWGSGTADFPYLVTPEQAIQNEILSKGKGLDSVSIVFVNADSGEGYINVDGNEGDRKNLTLWKGGEEVIKTVAANCNNTIVVMHTVGPVLIDEWYDNPNVTAIVWAGLPGQESGNSLVDVLYGRVSPGGKTPFTWGKTRESYGAPLLTKPNNGKGAPQDDFTEGVFIDYRRFDKYNETPIYEFGFGLSYTTFEYSNIYVQPLNARPYTPASGSTKAAPTFGNISTDYADYLYPEDIHKVPLYIYPWLNTTDPEEVLRRSRLTEMKAEDYIPSGATDGSPQPILPAGGAPGGNPGLYDEMYRVSAIITNTGNVVGDEVPQLYVSLGGPDDPKVVLRNFDRITLHPGQQTMWTTTLTRRDISNWDPASQNWVVTKYPKTVYIGSSSRKLHLQAPLPPY

How the values were obtained:
[1] = Temperature optimum of heterologously produced xylanase; type: biochemical; settings: pH 5.3, 60 min reaction
Protocol: (§1) Thermoascus XYN—30/Xyn10A was produced in T. reesei and the pH optimum of the heterologously produced protein was determined in the universal McIlvaine's buffer within a pH range of 3.0-8.0 using birch xylan as substrate (FIG. 8A). The optimal pH was determined to be 4.5. The temperature optimum for the enzymatic activity of XYN—30 was determined to be 75° C. (FIG. 8B).

[2] = Xylanase activity on birch xylan; type: biochemical
Summary of the method: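 Xylanase activity measured on birch glucuronoxylan by the IUPAC 1987 standard procedure, using enzyme purified from Acremonium thermophilum ALKO4245 or Thermoascus aurantiacus ALKO4242 culture supernatant. Protein determined by dye-binding assay against a bovine serum albumin standard.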

[3] = pH optimum of heterologously produced xylanase; type: biochemical; settings: McIlvaine's buffer, pH range 3.0-8.0, birch xylan
Protocol: as §1

[4] = Isoelectric focusing (PhastSystem), pI of purified protein; type: physicochemical; settings: IEF gel
Protocol: The sample was dissolved in water and applied to a Superdex 75 HR 10/30 gel filtration column equilibrated with 20 mM sodium phosphate pH 6.0, containing 0.15 M NaCl. Fractions were collected and those containing endoglucanase activity were combined. The protein eluate was judged to be pure by SDS-polyacrylamide gel electrophoresis and the molecular mass was evaluated on the basis of molecular mass standards (prestained SDS-PAGE standards, Broad Range, Bio-Rad) to be 54 kDa. The pI of the purified protein, designated as Ct EG—54 was determined with PhastSystem (Pharmacia) to be ca 5.5.
The sample was applied to a Sephacryl S-100 HR 26/60 gel filtration column equilibrated with 50 mM sodium acetate buffer pH 5.0, containing 0.05 M NaCl. The protein fraction containing endoglucanase activity was eluted from the column with a retention volume corresponding to a molecular weight of 16 kDa. Collected fractions were combined, concentrated and gel filtration was repeated. The protein eluate was judged to be pure by SDS-polyacryl amide gel electrophoresis and the molecular weight was evaluated to be 28 kDa. The pI of the purified protein, designated as Ta EG—28, was determined in an IEF gel (PhastSystem, Pharmacia) to be about 3.5. The specific activity of Ta EG—28 at 50° C. was determined to be 4290 nkat/mg (procedure of IUPAC 1987, using CMC as substrate).
The active material from the anion exchange chromatography was applied to a Sephacryl S-300 HR 26/60 column equilibrated with 20 mM sodium phosphate pH 6.5, containing 0.15 M NaCl. The protein with β-glucosidase activity was eluted with a retention volume corresponding to a molecular weight of 243 kDa. The protein was judged to be pure by SDS-polyacrylamide gel electrophoresis and the molecular weight was evaluated to be 101 kDa. The pI of the purified protein, designated as At βG—101, was determined in an IEF gel (PhastSystem, Pharmacia) to be in the area of 5.6-4.9. The specific activity of At βG—101 at 50° C. was determined to be 1100 nkat/mg (using 4-nitrophenyl-β-D-glucopyranoside as substrate, Bailey and Linko, 1990).
The active material from the cation exchange chromatography was applied to a Sephacryl S-300 HR 26/60 column equilibrated with 20 mM sodium phosphate pH 7.0, containing 0.15 M NaCl. The protein with β-glucosidase activity was eluted with a retention volume corresponding to a molecular weight of 294 kDa. […] The protein was judged to be pure by SDS-polyacrylamide gel electrophoresis and the molecular weight was evaluated to be 81 kDa, representing most likely the monomeric form of the protein. […] The specific activity of the purified protein, designated as Ta βG—81, at 50° C. was determined to be 600 nkat/mg using 4-nitrophenyl-β-D-glucopyranoside as substrate (Bailey and Linko, 1990). […]

[5] = Temperature optimum of heterologously produced β-glucosidases; type: biochemical; settings: temperature range 50-85° C., 60 min
Protocol: (§2) The pH optimum of the heterologously produced β-glucosidases was determined in the universal McIlvaine's buffer within a pH range of 3.0-8.0 using 4-nitrophenyl-β-D-glucopyranoside as substrate. The pH optima for the Acremonium βG—101, Chaetomium βG—76, and Thermoascus βG—81 are pH 4.5, 5.5, and 4.5, respectively (FIG. 7 A). The optimal temperature for enzymatic activity of these β-glucosidases was determined at the temperature range of 50-85° C. as described above. The highest activity of the enzymes was determined to be at 70° C., 65° C., and 75° C. for the Acremonium βG—101/Cel3A, Chaetomium βG—76/Cel3A, and Thermoascus βG—81/Cel3A, respectively (FIG. 7 B).

[6] = tested on: Trichoderma-strains (A47 and Rut-C30); assay: Cellulase induction on βG_81 pretreated Nutriose in shake flask cultivation; type: cell-based; settings: 7 days shake flask cultivation
Protocol: A high concentration starch hydrolysate mixture (Nutriose 74/968, Roquette) was treated with Thermoascus aurantiacus βG—81/Cel3A enriched enzyme preparation produced as described in Example 21 to produce a sugar mixture containing appreciable amounts of cellulase inducer (sophorose) to overcome the glucose repression.
The Ta βG—81/Cel3A enriched enzyme preparation was added to a 70% (w/w) Nutriose solution to a final concentration of 1 g total protein/liter. The container of the mixture was incubated in a water bath at 65° C. for 3 days with constant stirring and used as a carbon source in a shake flask medium for two different Trichoderma-strains (A47 and Rut-C30). The effect of the enzyme treatment was measured as an endoglucanase activity formed during a 7 days shake flask cultivation. As a reference cultivations were performed under the same conditions with untreated Nutriose as a carbon source.

[7] = β-glucosidase activity on 4-nitrophenyl-β-D-glucopyranoside; type: biochemical
Protocol: (§3) Acremonium Thermophilum ALKO4245 was grown as described in Example 1. The pure β-glucosidase was obtained by sequential purification with hydrophobic interaction and anion exchange chromatography followed by gel filtration. The β-glucosidase activity of the fractions collected during purification was determined using 4-nitrophenyl-β-D-glucopyranoside as substrate (Bailey and Linko, 1990). Protein content was measured by BioRad Assay Kit (Bio-Rad Laboratories) using bovine serum albumine as standard.
as §3, with “Thermoascus aurantiacus ALKO4242” for “Acremonium Thermophilum ALKO4245”, “interaction, anion” for “interaction”, “cation” for “anion”

[8] = Thermal stability of purified β-glucosidase; type: biochemical; settings: 0.1 mg/ml BSA, pH 5.0, 60 min, 4-nitrophenyl-β-D-glucopyranoside
Protocol: (§4) Thermal stability of the purified β-glucosidase was determined at different temperatures. The reaction was performed in the presence of 0.1 mg/ml BSA at pH 5.0 for 60 min using 4-nitrophenyl-β-D-glucopyranoside as substrate. A. thermophilum βG—101 was stable up to 70° C. The Aspergillus reference enzyme (Novozym 188) retained 100% of activity up to 60°.
as §4, with “T. aurantiacus βG—81” for “A. thermophilum βG—101”, “75°” for “70°”, “60° C.” for “60°.”

[9] = pH optimum of heterologously produced β-glucosidases; type: biochemical; settings: McIlvaine's buffer, pH range 3.0-8.0, 4-nitrophenyl-β-D-glucopyranoside
Protocol: as §2

Molecule	Temperature optimum [1] [°C]	Xylanase activity of the preparation ([2]; assayed according to Bailey et al., 1992)	Specific activity on birch xylan ([2]; purified xylanase, 50° C., procedure of IUPAC 1987) [nkat/mg]	pH optimum [3]	pI of the purified protein [4]	Temperature of highest activity [5] [°C]	Endoglucanase activity formed on pretreated Nutriose versus untreated Nutriose [6]	β-glucosidase activity of the preparation ([7]; according to Bailey and Linko, 1990, listed as Ta βG—81/Cel3A)	Specific activity on 4-nitrophenyl-β-D-glucopyranoside ([7]; purified β-glucosidase, 50° C.) [nkat/mg]	Thermal stability: temperature up to which stable / 100% of activity retained [8]	pH optimum [9]
Ta XYN_30: xylanase of Thermoascus aurantiacus ALKO4242, gene Ta xyn10A, amino acid SEQ ID NO: 18	75	132 000 nkat/ml	4800	4.5	ca. 6.8	–	–	–	–	–	–
B1	–	–	–	–	> 5.85 and 4.55	75	More than two-fold increase	6270 nkat/ml and 11500 nkat/ml	600	up to 75 °C	4.5

Source: patent publication US8409836B2, “Treatment of cellulosic material and enzymes useful therein” (Roal Oy, priority 2005, dated 2013)
